Measurements reported in patent US20220177604A1.
Changes are numbered by the printed parent chain. Values belong to the binder of their own block, whether it stands above or below them.

Biological target: recombinant Motavizumab human IgE (rMota-hIgE) (human) (UniProt P01854)
Test: hIgE binding ELISA

Chain of recombinant Motavizumab human IgE (rMota-hIgE) (human) (P01854 other isoform, or with tags, fused parts or gaps limits assumed, form in doubt): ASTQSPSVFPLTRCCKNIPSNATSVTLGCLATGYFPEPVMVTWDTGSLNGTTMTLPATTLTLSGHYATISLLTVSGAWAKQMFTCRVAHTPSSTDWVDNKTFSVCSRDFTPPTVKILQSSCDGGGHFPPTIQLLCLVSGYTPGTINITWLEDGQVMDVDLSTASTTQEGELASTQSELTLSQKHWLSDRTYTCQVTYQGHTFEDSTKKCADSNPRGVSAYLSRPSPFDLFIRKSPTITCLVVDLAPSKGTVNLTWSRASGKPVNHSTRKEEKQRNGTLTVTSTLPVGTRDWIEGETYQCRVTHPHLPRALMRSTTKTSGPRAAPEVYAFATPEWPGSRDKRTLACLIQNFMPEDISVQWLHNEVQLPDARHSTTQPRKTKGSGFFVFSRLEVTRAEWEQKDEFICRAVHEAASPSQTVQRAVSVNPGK

B1: CL-2C mAb 1 (antibody, V domains shown)
VH: QVQLVQSGAEVMKPGSSVKVSCKASGYTFSWYWLEWVRQAPGHGLEWMGEIDPGTFTTHYNEKFKARVTFTADTSTSTAYMELSSLRSEDTAVYYCARFSHFSGSHYDYFDYWGQGTLVTVSS
VL: EIVMTQSPATLSVSPGERATLSCRASQHIGTNIHWYQQKPGQAPRLLIYYASESISGIPARFSGSGSGTEFTLTISSLQSEDFAVYYCQQSWSHPTTFGGGTKVEIK
Ratio OD450 pH 7.4/pH 6: 6.94

B2: CL-2C mAb 11 (antibody, V domains shown)
VH: B1 VH
VL: B1 VL with H28S, Y50H
Ratio OD450 pH 7.4/pH 6: 5.9

B3: CL-2C mAb 2 (antibody, V domains shown)
VH: B1 VH with W33H, H59N, H106N, Y107H
VL: B1 VL
Ratio OD450 pH 7.4/pH 6: 7.11

B4: CL-2C mAb 5 (antibody, V domains shown)
VH: B1 VH with H59N, H106N
VL: B1 VL
Ratio OD450 pH 7.4/pH 6: 0.73

B5: CL-2C mAb 4 (antibody, V domains shown)
VH: B1 VH with W33H, H59N, S105H, H106N
VL: B1 VL
Ratio OD450 pH 7.4/pH 6: 5.26

B6: CL-2C mAb 7 (antibody, V domains shown)
VH: B1 VH with W33H, H59N, H106N, Y107H
VL: B1 VL with H28S, Y50H, Q89H, W92D, H94W
Ratio OD450 pH 7.4/pH 6: 1.43

B7: CL-2C mAb 3 (antibody, V domains shown)
VH: B1 VH with W33H, H59N
VL: B1 VL
Ratio OD450 pH 7.4/pH 6: 6.44

B9: CL-2C mAb 8 (antibody, V domains shown)
VH: B1 VH with W33H, H59N
VL: B1 VL with H28S, Y50H, Q89H, W92D, H94W
Ratio OD450 pH 7.4/pH 6: 1.12

B10: CL-2C mAb 12 (antibody, V domains shown)
VH: B1 VH with W33H, H59N, H106N, Y107H
VL: B1 VL with H28S, Y50H
Ratio OD450 pH 7.4/pH 6: 1.54

B12: CL-2C mAb 9 (antibody, V domains shown)
VH: B1 VH with W33H, H59N, S105H, H106N
VL: B1 VL with H28S, Y50H, Q89H, W92D, H94W
Ratio OD450 pH 7.4/pH 6: 1.45

B15: CL-2C mAb 10 (antibody, V domains shown)
VH: B1 VH with H59N, H106N
VL: B1 VL with H28S, Y50H, Q89H, W92D, H94W
Ratio OD450 pH 7.4/pH 6: 2.77

B17: CL-2C mAb 6 (antibody, V domains shown)
VH: B1 VH
VL: B1 VL with H28S, Y50H, Q89H, W92D, H94W
Ratio OD450 pH 7.4/pH 6: 10.2

B18: CL-2C mAb 13 (antibody, V domains shown)
VH: B1 VH with W33H, H59N
VL: B1 VL with H28S, Y50H
Ratio OD450 pH 7.4/pH 6: 1.28

The next lines start with the values.

Ratio OD450 pH 7.4/pH 6: 4.07
B8: CL-2C mAb 15 (antibody, V domains shown)
VH: B1 VH with H59N, H106N
VL: B1 VL with H28S, Y50H

Ratio OD450 pH 7.4/pH 6: 0.97
B11: CL-2C mAb 18 (antibody, V domains shown)
VH: B1 VH with W33H, H59N
VL: B1 VL with H28S, Y50H, W92D

Ratio OD450 pH 7.4/pH 6: 2.24
B13: CL-2C mAb 16 (antibody, V domains shown)
VH: B1 VH
VL: B1 VL with H28S, Y50H, W92D

Ratio OD450 pH 7.4/pH 6: 1.03
B14: CL-2C mAb 17 (antibody, V domains shown)
VH: B1 VH with W33H, H59N, H106N, Y107H
VL: B1 VL with H28S, Y50H, W92D

Ratio OD450 pH 7.4/pH 6: 1.53
B16: CL-2C mAb 14 (antibody, V domains shown)
VH: B1 VH with W33H, H59N, S105H, H106N
VL: B1 VL with H28S, Y50H
